According to the supplement of paper PMC10567573:

B1: CDC25B (parent)
chain: FVDILESDLKDDDAVPPGMESLIS

Variants of: B1
Test: protein stability index of a GFP-peptide fusion (GPS, HEK-293T) (PSI 1-6); higher = more stable
Details: c terminus: a fixed tail appended
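Note: lentivirally expressed fusions sorted by FACS into six bins by GFP to DsRed ratio, PSI derived from sequencing read proportions per bin multiplied by bin number.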

Protein stability index, by site and new letter:
S7: A 2.79, C 3.23, D 3.67, E 3.79, F 1.9, G 3.22, H 2.6, I 2.3, K 2.6, L 2.21, M 2.6, N 2.57, P 2.83, Q 3.19, R 2.47, T 2.85, V 2.17, W 1.36, Y 2.77
D8: A 2.58, C 2.15, E 2.89, F 2.32, G 2.93, H 2.79, I 2.56, K 2.48, L 2.9, M 2.55, N 3.18, P 2.31, Q 2.67, R 2.7, S 2.38, T 2.66, V 2.7, W 2.54, Y 2.62
L9: A 3.09, C 3.05, D 3.21, E 3.39, F 2.85, G 3.05, H 3.33, I 3.05, K 3.4, M 3.03, N 3.67, P 3.62, Q 3.18, R 3.08, S 3.36, T 3.23, V 2.93, W 2.97, Y 3.18
K10: A 2.77, C 3.11, D 2.91, E 3.33, F 2.63, G 3.5, H 2.97, I 2.72, L 2.45, M 3.2, N 2.87, P 3.1, Q 2.97, R 2.75, S 2.52, T 3.46, V 3, W 2.43, Y 2.59
D11: A 3, C 2.25, E 3.17, F 2.52, G 2.78, H 2.37, I 2.6, K 3.02, L 2.25, M 2.6, N 2.5, P 2.68, Q 2.51, R 2.25, S 2.94, T 3.28, V 2.61, W 1.8, Y 2.71
D12: A 2.84, C 2.5, E 2.93, F 2.19, G 3.01, H 2.88, I 2.21, K 2.78, L 2.9, M 2.08, N 2.67, P 2.66, Q 2.62, R 2.16, S 2.96, T 2.65, V 2.56, W 1.83, Y 2.69
D13: A 3.04, C 2.56, E 2.95, F 2.38, G 2.61, H 2.7, I 2.08, K 2.96, L 2.61, M 2.33, N 2.67, P 2.83, Q 2.71, R 2.1, S 2.63, T 2.75, V 2.39, W 2.62, Y 2.11
A14: C 2.86, D 3.48, E 3.05, F 2.49, G 2.53, H 2.75, I 2.65, K 2.96, L 2.8, M 3, N 3.29, P 3.15, Q 2.33, R 2.75, S 3.24, T 3.61, V 3.15, W 2.65, Y 2.49
V15: A 2.78, C 2.88, D 3.11, E 3.11, F 2.39, G 3.19, H 3.04, I 3, K 2.96, L 2.78, M 3.02, N 3.27, Q 2.87, R 2.69, S 3.32, T 2.92, W 2.69, Y 3.1
P16: A 2.98, C 2.68, D 3.62, E 3.04, F 2.06, G 3.02, H 3.14, I 2.44, K 3, L 2.76, M 2.6, N 3.23, Q 2.79, R 2.59, S 2.88, T 2.98, V 3.07, W 2.52, Y 2.82
P17: A 2.95, C 2.58, D 3.2, E 3.6, F 2.21, G 3.25, H 2.61, I 2.45, K 2.45, L 2.43, M 2.69, N 2.66, Q 3.2, R 2.19, S 2.72, T 3.51, V 2.27, W 1.81, Y 2.71
G18: A 3.03, C 2.6, D 3.29, E 3.39, F 2.26, H 3.11, I 2.32, K 2.8, L 3.51, M 2.6, N 3.23, P 3.18, Q 2.86, R 2.87, S 3.06, T 3.28, V 2.87, W 2.31, Y 2.65
M19: A 3.22, C 2.91, D 3.48, E 3.37, F 2.83, G 3.06, H 2.89, I 2.85, K 3.02, L 3.08, N 3.4, P 3.54, Q 3.6, R 2.55, S 3.45, T 3.09, V 3.08, W 2.67, Y 2.32
E20: A 2.77, C 2.43, D 2.6, F 1.79, G 2.48, H 2.69, I 2.31, K 2.74, L 2.2, M 2.16, N 2.76, P 2.44, Q 3.08, R 2.71, S 2.43, T 2.51, V 2.66, W 1.78, Y 2.12
S21: A 2.84, C 2.93, D 3.15, E 3.05, F 2.5, G 2.61, H 2.67, I 3.24, K 2.68, L 3.43, M 2.96, N 2.81, P 3.02, Q 2.83, R 2.86, T 2.76, V 2.93, W 2.22, Y 2.35
L22: A 3.37, C 3.15, D 3.67, E 3.92, F 2.63, G 3.21, H 3.52, I 2.77, K 2.99, M 3.1, N 2.71, P 3.36, Q 3.32, R 2.66, S 3.66, T 3.65, V 3.19, W 2.43, Y 2.47
I23: A 3.54, C 2.93, D 3.7, E 3.57, F 2.48, G 3.03, H 3.56, K 2.83, L 3.07, M 3.02, N 2.6, P 2.96, Q 3.77, R 2.77, S 3.3, T 2.91, V 2.65, W 2.25, Y 2.69
S24: A 3.1, C 2.66, D 3.45, E 3.27, F 2.01, G 3.02, H 2.94, I 2.69, K 2.82, L 2.18, M 2.52, N 2.85
